In patent publication US20030152946A1, “Bh4-fused polypeptides” (priority 1999, published 2003):
Each block holds one molecule with its values, some of them ahead of it.

What was measured:
Rat liver VDAC = biological target: T1, Rat liver VDAC (Rattus norvegicus, UniProt Q9Z2L0); test: VDAC activity: sucrose uptake into VDAC liposomes (liposomal swelling, light scatter at 520 nm); assay type: biochemical; details: for Inhibition of VDAC activity (VDAC-mediated sucrose uptake): 20 μg/ml protein or polypeptide
T1 construct: Rat liver VDAC was purified in accordance with a report made by Shimizu et al; from tissue; host or cells: rat liver (mitochondria)
T1 sequence (Q9Z2L0 whole entry): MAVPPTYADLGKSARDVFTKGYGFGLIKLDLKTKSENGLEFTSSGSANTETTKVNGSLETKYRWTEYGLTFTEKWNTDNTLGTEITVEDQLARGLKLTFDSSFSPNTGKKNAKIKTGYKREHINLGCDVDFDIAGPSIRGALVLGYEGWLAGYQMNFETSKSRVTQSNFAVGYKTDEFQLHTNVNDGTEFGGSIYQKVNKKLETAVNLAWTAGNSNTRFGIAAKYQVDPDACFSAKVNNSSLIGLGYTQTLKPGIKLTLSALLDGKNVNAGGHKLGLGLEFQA
Description: Purified VDAC was reconstituted in small unilamellar vesicles by the ultrasonic freeze-thaw procedure described in a report made by Shimizu et al. [Nature, 399, 483-487 (1999)]. Sucrose uptake experiment was performed by assessing liposomal swelling.
Liposomes produced at pH 5.2 were incubated at 25° C. in 1 ml of liposome buffer together with rBcl-xL, rΔ21, rBax or a polypeptide for 3 minutes. Here, acidic pH was a required condition for efficient uptake of rBcl-xL and rBax into the liposomes. Thereafter, sucrose was added up to a concentration of 50 mM to the mixture, and the liposomal swelling was assessed by the decrease in light scatter at a wavelength of 520 nm using a spectrophotometer (F-4500, manufactured by Hitachi, Ltd.). Sucrose uptake was also estimated from ^14C-sucrose uptake as described in the report made by Shimizu et al. [Nature, 399, 483-487(1999)].
Next, the functional role of the BH4 domain in the regulation of VDAC activity was examined. VDAC activity was measured by assessing sucrose uptake into VDAC-containing liposomes, using the two procedures: a method with radiolabeled sucrose described in a report made by Shimizu et al. [Nature, 399, 483-487 (1999)], and a method for measuring a sucrose uptake-dependent liposomal swelling that was monitored by decrease in light scatter. Since sucrose-uptake-dependent liposomal swelling was confirmed by microscopic observation or flow cytometric analysis, it is thought that the liposomal swelling is based on the rapid influx of sucrose and water through large VDAC pores which overwhelmed osmosis-dependent efflux of water.

VDAC = biological target: T2, VDAC (Rattus norvegicus, UniProt Q9Z2L0); test: Co-immunoprecipitation with VDAC and Western blot; assay type: binding; details: 20 μg/ml protein or polypeptide
T2 construct: from tissue; host or cells: rat liver (purified VDAC, or isolated mitochondria)
T2 sequence (Q9Z2L0 whole entry): as above
Description: Purified VDAC (20 μg/ml) was incubated with recombinant BCl-xL (rBcl-xL) and recombinant Δ21 (rΔ21), and the resulting mixture was immunoprecipitated with anti-Bcl-xL (L19) antibody and normal rabbit IgG. In order to detect interactions between polypeptide and VDAC, isolated mitochondria (1 mg) were incubated with 20 μg of Bcl-xL N-terminal polypeptide or Bcl-xL C-terminal polypeptide for 5 minutes. Thereafter, the resulting mitochondria were pelleted, washed, and suspended in a lysis buffer (10 mM HEPES, pH 7.4, 142.5 mM KCl, 5 mM MgCl2, 1 mM EGTA and 0.5% NP40) in the presence of proteinase inhibitors (0.1 mM p-APMSF, 10 μg/ml aprotinin, 1 μg/ml chymostatin, 1 μg/ml leupeptin, 1 μg/ml antipain, 1 μg/ml pepstatin), followed by ultrasonic disruption. Immunoprecipitation was carried out with anti-Bcl-x polyclonal antibodies corresponding to the polypeptides used. Co-immunoprecipitation of VDAC was detected by Western blotting using an anti-VDAC antibody.

HeLa cells = test: VP16-induced apoptosis in HeLa cells in the presence of TAT-BH4 polypeptide; assay type: cell-based, human; details: VP16 for 24 hours, polypeptide in the culture medium
Description: FIG. 17 is a diagram showing the results for evaluating the effect of TAT-BH4 polypeptide on VP16-induced apoptosis. Cells were treated with VP16 at the indicated concentrations for 24 hours in the presence of 100 μg/ml TAT-BH4 polypeptide (□) or TAT polypeptide (∘) or absence of polypeptide (●) and then stained with Hoechst 33342. Apoptotic cell death was determined by the morphology of nuclei using a fluorescence microscope. Data shown are from one of three independent experiments.
FIG. 18 is a diagram showing the results for evaluating the dose-dependent inhibition of VP16-induced apoptosis by TAT-BH4 polypeptide. […] Apoptotic cell death was determined in the same manner as in FIG. 17.
The inhibition and promotion of apoptosis can be evaluated by, for instance, the following method, without being limited thereto.
Therefore, in order to facilitate the transport of the BH4 polypeptide into cells, the above-mentioned TAT-BH4 polypeptide of 30 amino acid residues was synthesized, the polypeptide comprising N-terminal eosin-conjugated cystein and the PTD of HIV TAT protein fused to the Bcl-xL BH4 polypeptide. HeLa cells were treated with 200 μM VP16 in the presence of the TAT-BH4 polypeptide, and then observed by an optical phase-contrast microscope and a fluorescence microscope, respectively. […]

Rat liver mitochondria [1] = test: Ca2+-induced ΔΨ loss in isolated mitochondria (Rhodamine 123 uptake); assay type: biochemical; details: for Inhibition of Ca2+-induced mitochondrial ΔΨ loss: mitochondria 1 mg/ml, 40 μM Ca2+, 20 μg/ml protein or polypeptide
Description: (§1) Rat liver mitochondria (1 mg protein/ml) isolated in accordance with a report made by Shimizu et al. [Oncogene, 13, 21-29(1996)] were incubated at 25° C. in a medium containing 0.3 M mannitol, 10 mM HEPES/K^+ (pH 7.4), 0.1% fatty acid-free BSA, 1 mM potassium phosphate, 40 μM CaCl2 and 4.2 mM succinate for energization in the presence or absence of recombinant proteins.
ΔΨ was assessed by measuring the uptake of Rhodamine 123 (Rh123) as previously described by Shimizu et al. [Oncogene, 13, 21-29(1996)].
Isolated mitochondria (1 mg/ml) were incubated with 20 μg/ml Bcl-xL BH4 polypeptide in the presence of 40 μM Ca^2+, and thereafter Rhodamine 123 intensity was continuously monitored. The results are shown in the left panel of FIG. 14. In addition, isolated mitochondria (1 mg/ml) were incubated with 20 μg/ml BH4 polypeptide of Bcl-xL and any of various mutant polypeptides in the presence of 40 μM Ca for 15 minutes, and thereafter ΔΨ was measured by Rhodamine 123 intensity. The results are shown in the right panel of FIG. 14.

Bax = biological target: T3, Bax (Homo sapiens, UniProt Q07812); test: Binding of BH4 polypeptide to Bax
T3 construct: made in house
T3 sequence (Q07812 whole entry): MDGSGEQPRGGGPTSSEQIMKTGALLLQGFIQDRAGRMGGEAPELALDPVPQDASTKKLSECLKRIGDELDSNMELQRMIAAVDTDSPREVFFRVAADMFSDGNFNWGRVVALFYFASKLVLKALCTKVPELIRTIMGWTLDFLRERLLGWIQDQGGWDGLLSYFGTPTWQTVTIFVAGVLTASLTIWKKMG

Rat liver mitochondria [2] = test: Ca2+-induced cytochrome c release from isolated mitochondria (Western blot); assay type: biochemical; details: mitochondria 1 mg/ml, 40 μM Ca2+, 20 μg/ml protein
Description: as §1
The cytochrome c release was evaluated by centrifuging the above-mentioned mitochondria, re-suspending the resulting pellets in an RIPA buffer to give mitochondria suspension, and subjecting the mitochondria suspension and supernatant to Western blot analysis using anti-cytochrome c antibodies.

[3] = biological target: rat liver VDAC (voltage-dependent anion channel) (rat, UniProt Q9Z2L0 2-283); test: cell-based or functional assay
Sequence of rat liver VDAC (voltage-dependent anion channel) (Q9Z2L0 2-283): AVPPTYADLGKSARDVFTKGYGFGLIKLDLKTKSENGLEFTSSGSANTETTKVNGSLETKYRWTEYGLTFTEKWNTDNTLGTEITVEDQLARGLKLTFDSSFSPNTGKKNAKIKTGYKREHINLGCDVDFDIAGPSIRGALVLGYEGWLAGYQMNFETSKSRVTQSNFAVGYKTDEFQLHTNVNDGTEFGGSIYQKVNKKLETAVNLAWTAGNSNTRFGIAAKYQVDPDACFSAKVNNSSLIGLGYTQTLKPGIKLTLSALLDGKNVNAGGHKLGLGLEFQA

Molecule: FL1213GG: F12L13 mutant of human Bcl-xL BH4 polypeptide (FIG. 13) (SNRELVVDGGSYKLSQKGYS) [reference compound]
Inhibition of VDAC activity (VDAC-mediated sucrose uptake) (Rat liver VDAC; VDAC liposomes, 50 mM sucrose): did not inhibit

Molecule: L17W: Bcl-xL BH4 polypeptide with one amino acid substitution at L17 (SNRELVVDFLSYKWSQKGYS) [Polypeptide L17W, reference compound]
VDAC inhibitory activity as compared to VDAC inhibition of the normal BH4 polypeptide (fraction in words) (Rat liver VDAC; 20 μg/ml polypeptide, 50 mM sucrose): about one-half

Molecule: LV89GG: L8V9 mutant of human Bcl-xL BH4 polypeptide (FIG. 13) (SNREGGVDFLSYKLSQKGYS) [reference compound]
Inhibition of VDAC activity (VDAC-mediated sucrose uptake) (Rat liver VDAC; VDAC liposomes, 50 mM sucrose): did not inhibit

Molecule: LV89VF: L8V9 mutant of human Bcl-xL BH4 polypeptide (FIG. 13) (SNREVFVDFLSYKLSQKGYS) [reference compound]
Inhibition of VDAC activity (VDAC-mediated sucrose uptake) (Rat liver VDAC; VDAC liposomes, 50 mM sucrose): did not inhibit

Interaction with VDAC (co-immunoprecipitation) (VDAC): detected, although to a lesser extent
Molecule: N-terminal fragment (amino acid nos: 2 to 9) of Bcl-xL: N-terminal (amino acid nos: 2 to 19) polypeptide of Bcl-xL purchased from Santa Cruz Biotechnology (SQSNRELVVDFLSYKLSQ) [reference compound]

Molecule: SNRELVVDFLSYKLSQKGYS (listed as Homo sapiens) [BH4 polypeptide, amino acid nos: 4 to 23 of human Bcl-xL]
Inhibition of VP16-induced apoptosis (HeLa cells): no effect
Molar concentration needed to inhibit ΔΨ loss and VDAC activity, relative to recombinant Bcl-xL (Rat liver mitochondria [1]; applies to Ca2+-induced ΔΨ loss and VDAC activity): about 25 fold
Inhibition of Ca2+-induced mitochondrial ΔΨ loss (Rat liver mitochondria [1]): significantly inhibits
Binding to Bax (Bax): did not bind
Closure of VDAC (Rat liver VDAC; 20 μg/ml BH4 polypeptide): complete closure
Inhibition of rBax-induced enhancement of VDAC activity (Rat liver VDAC; VDAC liposomes, 5 μg/ml rBax, 50 mM sucrose): inhibited the rBax-induced enhancement of VDAC activity in a dose-dependent manner
Inhibition of VDAC activity (VDAC-mediated sucrose uptake) (Rat liver VDAC; VDAC liposomes, 50 mM sucrose): inhibited the VDAC activity in a concentration-dependent manner
Inhibition of VDAC activity (VDAC-mediated sucrose uptake) (Rat liver VDAC; VDAC liposomes, 50 mM sucrose, listed as BH4 polypeptide of BCl-xL): significantly inhibits

Molecule: TGYDNREIVMKYIHYKLSQRGYEW (listed as Homo sapiens) [BH4 polypeptide derived from Bcl-2, amino acid nos: 7 to 30 of human Bcl-2]
Inhibition of VDAC activity (VDAC-mediated sucrose uptake) (Rat liver VDAC; VDAC liposomes, 50 mM sucrose): inhibited VDAC activity

Inhibition of VDAC activity (VDAC-mediated sucrose uptake) (Rat liver VDAC; VDAC liposomes, 50 mM sucrose): inactive
Molecule: VAQDTEEVFRSYVFYRHQQEQEAE [polypeptide derived from Bak, reference compound]

Molecule: eosin-C-RKKRRQRRR [TAT-only polypeptide, reference compound]
Inhibition of VP16-induced apoptosis (HeLa cells): did not significantly inhibit

Interaction with VDAC (co-immunoprecipitation) (VDAC): interacted with VDAC to a similar level
Inhibition of VDAC activity (VDAC-mediated sucrose uptake) (Rat liver VDAC; VDAC liposomes, 50 mM sucrose): inhibited
Effect on VDAC-free liposomes (Rat liver VDAC; VDAC-free liposomes): did not show any significant effect
Molecule: rBcl-xL: recombinant human Bcl-xL expressed as GST fusion in Escherichia coli, GST cleaved with thrombin
Inhibition of Ca2+-induced cytochrome c release (Rat liver mitochondria [2]): inhibited
Inhibition of Ca2+-induced mitochondrial ΔΨ loss (Rat liver mitochondria [1]): inhibited

Inhibition of VDAC activity (VDAC-mediated sucrose uptake) (Rat liver VDAC; VDAC liposomes, 50 mM sucrose): did not affect
Molecule: rΔ21: recombinant human Bcl-xL lacking the N-terminus 21 amino acids residues (BH4 deletion mutant)
Inhibition of Ca2+-induced cytochrome c release (Rat liver mitochondria [2]): did not virtually show inhibitory activity
Inhibition of Ca2+-induced mitochondrial ΔΨ loss (Rat liver mitochondria [1]): did not virtually show inhibitory activity

Molecule: ΔFL: F12L13 mutant of human Bcl-xL BH4 polypeptide (FIG. 13) (SNRELVVDSYKLSQKGYS) [reference compound]
Inhibition of VDAC activity (VDAC-mediated sucrose uptake) (Rat liver VDAC; VDAC liposomes, 50 mM sucrose): did not inhibit

Molecule: ΔLV: L8V9 mutant of human Bcl-xL BH4 polypeptide (FIG. 13) (SNREVDFLSYKLSQKGYS) [reference compound]
Inhibition of VDAC activity (VDAC-mediated sucrose uptake) (Rat liver VDAC; VDAC liposomes, 50 mM sucrose): did not inhibit

molar concentration needed to inhibit Ca2+-induced membrane potential loss and VDAC activity, relative to recombinant Bcl-xL [3]: ~25 fold
Molecule: SNRELVVDFLSYKLSQKGYS [Human Bcl-xL BH4 polypeptide (amino acid nos: 4 to 23 of human Bcl-xL)]
